In PMC5469197, “ANGUSTIFOLIA, a Plant Homolog of CtBP/BARS Localizes to Stress Granules and Regulates Their Formation” (Frontiers in Plant Science, 2017):

Experiments:
Experiment in all cases: co-IP; LUMIER in HEK293TN cells: Prot-A fusion co-transfected with Renilla luciferase fusion (AN always the luciferase fusion with the interactors); luciferase activity before (input) and after pulldown; percentage pulldown = pulldown/input x 100; empty vectors as negative control; positive if more than two times the background
Details in all cases: partners not purified
[1] = target: T1, PROTEIN MEI2-LIKE 5 (ATML5), Prot-A fusion (Arabidopsis thaliana, UniProt Q8VWF5 1-800)
T1 construct: Protein MEI2-like 5, Arabidopsis thaliana, AT1G29400; CDS amplified from Col-0 cDNA; source: HEK293TN cells, transfected; not shown: Protein A (Staphylococcus aureus), N-terminal, kept
T1 sequence (looked up): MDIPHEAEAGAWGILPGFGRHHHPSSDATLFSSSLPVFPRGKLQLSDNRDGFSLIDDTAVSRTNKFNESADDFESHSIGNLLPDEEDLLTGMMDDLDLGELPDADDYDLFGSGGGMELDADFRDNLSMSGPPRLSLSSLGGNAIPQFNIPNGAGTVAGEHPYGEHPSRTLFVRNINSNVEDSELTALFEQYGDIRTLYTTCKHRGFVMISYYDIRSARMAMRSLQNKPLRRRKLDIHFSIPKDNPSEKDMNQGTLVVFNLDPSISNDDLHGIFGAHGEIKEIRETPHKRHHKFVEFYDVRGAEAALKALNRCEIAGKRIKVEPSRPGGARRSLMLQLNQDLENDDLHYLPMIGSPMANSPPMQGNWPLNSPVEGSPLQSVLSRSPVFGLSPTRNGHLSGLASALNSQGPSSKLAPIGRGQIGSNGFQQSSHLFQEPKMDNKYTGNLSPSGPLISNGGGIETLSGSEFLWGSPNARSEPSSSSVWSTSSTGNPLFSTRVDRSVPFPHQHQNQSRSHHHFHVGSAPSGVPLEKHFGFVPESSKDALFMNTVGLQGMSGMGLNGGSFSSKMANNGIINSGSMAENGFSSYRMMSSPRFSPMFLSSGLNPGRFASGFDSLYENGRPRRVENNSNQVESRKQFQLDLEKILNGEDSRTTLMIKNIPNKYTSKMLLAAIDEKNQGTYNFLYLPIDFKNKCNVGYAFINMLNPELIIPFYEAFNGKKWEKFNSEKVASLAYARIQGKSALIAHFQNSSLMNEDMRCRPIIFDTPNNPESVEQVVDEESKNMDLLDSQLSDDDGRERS

[2] = target: T2, KH DOMAIN-CONTAINING PROTEIN (AT2G38610), Prot-A fusion (Arabidopsis thaliana, UniProt Q9ZVI3 1-286)
T2 construct: KH domain-containing protein, Arabidopsis thaliana, AT2G38610; CDS amplified from Col-0 cDNA; source: HEK293TN cells, transfected; not shown: Protein A (Staphylococcus aureus), N-terminal, kept
T2 sequence (looked up): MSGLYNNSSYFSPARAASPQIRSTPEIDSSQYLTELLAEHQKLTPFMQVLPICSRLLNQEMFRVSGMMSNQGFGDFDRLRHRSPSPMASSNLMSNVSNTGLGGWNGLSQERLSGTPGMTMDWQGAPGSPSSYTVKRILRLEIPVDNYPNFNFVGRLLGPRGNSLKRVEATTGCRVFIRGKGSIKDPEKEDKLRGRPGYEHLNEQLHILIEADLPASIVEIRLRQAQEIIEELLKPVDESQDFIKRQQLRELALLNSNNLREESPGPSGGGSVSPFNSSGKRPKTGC

[3] = target: T3, EUKARYOTIC INITIATION FACTOR 4E1 (EIF4E1), Prot-A fusion (Arabidopsis thaliana, UniProt O23252 1-235)
T3 construct: Eukaryotic initiation factor 4E1, Arabidopsis thaliana, AT4G18040; CDS amplified from Col-0 cDNA; source: HEK293TN cells, transfected; not shown: Protein A (Staphylococcus aureus), N-terminal, kept
T3 sequence (looked up): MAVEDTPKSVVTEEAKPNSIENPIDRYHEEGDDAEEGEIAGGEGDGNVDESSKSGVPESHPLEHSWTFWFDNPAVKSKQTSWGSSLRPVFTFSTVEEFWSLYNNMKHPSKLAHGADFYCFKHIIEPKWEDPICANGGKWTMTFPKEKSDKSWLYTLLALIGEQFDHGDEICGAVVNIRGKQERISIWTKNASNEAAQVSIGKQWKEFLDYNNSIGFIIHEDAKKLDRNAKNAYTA

B1: AN, Renilla luciferase fusion (LUMIER) (natural protein, Arabidopsis thaliana, UniProt O23702 1-636, looked up)
chain: MSKIRSSATMPHRDQPSPASPHVVTLNCIEDCALEQDSLAGVAGVEYVPLSRIADGKIESATAVLLHSLAYLPRAAQRRLRPHQLILCLGSADRAVDSTLAADLGLRLVHVDTSRAEEIADTVMALILGLLRRTHLLSRHALSASGWLGSLQPLCRGMRRCRGMVLGIVGRSVSARYLASRSLAFKMSVLYFDVPEGDEERIRPSRFPRAARRMDTLNDLLAASDVISLHCALTNDTVQILNAECLQHIKPGAFLVNTGSCQLLDDCAVKQLLIDGTIAGCALDGAEGPQWMEAWVKEMPNVLILPRSADYSEEVWMEIREKAISILHSFFLDGVIPSNTVSDEEVEESEASEEEEQSPSKHEKLAIVESTSRQQGESTLTSTEIVRREASELKESLSPGQQHVSQNTAVKPEGRRSRSGKKAKKRHSQQKYMQKTDGSSGLNEESTSRRDDIAMSDTEEVLSSSSRCASPEDSRSRKTPLEVMQESSPNQLVMSSKKFIGKSSELLKDGYVVALYAKDLSGLHVSRQRTKNGGWFLDTLSNVSKRDPAAQFIIAYRNKDTVGLRSFAAGGKLLQINRRMEFVFASHSFDVWESWSLEGSLDECRLVNCRNSSAVLDVRVEILAMVGDDGITRWID
notes: ANGUSTIFOLIA (AN), Arabidopsis thaliana, AT1G01510; CDS amplified from Col-0 cDNA; in the dimerisation test the second copy must have been the N-terminal protein A fusion (surmised from the LUMIER format); also called wild-type AN; source: HEK293TN cells, transfected; not shown: Renilla reniformis luciferase, N-terminal, kept
fold change from background [1]: 5.04 fold
percentage pulldown [1]: 0.47%
fold change from background [2]: 2.93 fold
percentage pulldown [2]: 0.28%
fold change from background [3]: 2.83 fold
percentage pulldown [3]: 0.27%
